PMC5748972 (The Journal of Cell Biology, 2018)

Columns and labels:
[1] = molecular target: FITC-conjugated 4-((N′-2-methylphenyl)ureido)-phenylacetyl-L-leucyl-L-aspartyl-L-valyl-L-prolyl-L-al; experiment: fluorescence polarisation
[2] = molecular target: intact α4β1 on Jurkat cells (Homo sapiens, UniProt P05556+P13612); experiment: Fluorescent flow cytometry saturation binding of FITC-LDVP, Jurkat; settings: basal
[3] = molecular target: intact α4β1 on Thp1 cells (Homo sapiens, UniProt P05556+P13612); experiment: Fluorescent flow cytometry saturation binding of FITC-LDVP, Thp1; settings: basal
integrin α4β1 = integrin α4β1 (Homo sapiens, UniProt P05556+P13612); experiment: Summary statements across α4β1 preparations and cell types; assay type: binding; settings: Jurkat, Thp1, KA4 cell surface
intact α4β1 on KA4 cells = intact α4β1 on KA4 cells (Homo sapiens, UniProt P05556+P13612); experiment: Fluorescent flow cytometry saturation binding of FITC-LDVP, KA4; settings: basal
[4] = molecular target: intact integrin α4β1 on the surface of Jurkat cells (human (endogenous in Jurkat)) (UniProt P13612); experiment: flow cytometry on cells
[5] = molecular target: intact integrin α4β1 on the surface of Jurkat cells (human (endogenous in Jurkat), UniProt P13612;P05556); experiment: flow cytometry on cells

Molecule: integrin α4β1 headpiece with high-mannose N-glycans (from UniProt P05556 21-501) (complex)
- Kd [1]: 5.2 nM

Molecule: α4β1: integrin α4β1; intact receptor on the cell surface
- P^EO [2]: 1.1 ± 0.2%
- P^EO [3]: 0.4 ± 0.1%
- free energy of the BC state, range on three cell types (integrin α4β1): -3.2 to -2.5 kcal/mol
- P^EO (intact α4β1 on KA4 cells): 1.4 ± 0.3%

Molecule: human MAdCAM D1D2 (mucosal addressin cell adhesion molecule, domains 1 and 2) (domain or fragment)
- Kd [4]: 13900 nM

B1: alternatively spliced connecting segment III of human fibronectin (domain or fragment)
chain: DELPQLVTLPHPNLHGPEILDVPSTVQKTPFVTHPGYDTGNGIQLPGTSGQQPSVGQQMIFEEHGFRRTTPPTTATPIRHRPRPYPPNVGEEIQIGHIPREDVDYHLYPHG
- Kd [5]: 1000 ± 190 nM
